One block for each binder: values may come before it.
B2: heIF3b-RRM_(170-274) (domain or fragment, human, UniProt P55884 170-274, looked up)
chain: GDVLKDRPQEADGIDSVIVVDNVPQVGPDRLEKLKNVIHKIFSKFGKITNDFYPEEDGKTKGYIFLEYASPAHAVDAVKNADGYKLDKQHTFRVNLFTDFDKYMT
notes: 13C/15N-labeled in some NMR samples; The limits are printed for the NMR complex; the ITC names only heIF3b-RRM; also called human eIF3b-RRM; heIF3b-RRM domain; source: E. coli BL21(DE3), purified (nickel-chelating column, TEV cleavage, second nickel column)

How the values were obtained:
Settings in all cases: both partners purified
heIF3b-RRM_(170-274) = molecular target: B2; assay: NMR solution structure; 13C/15N-labeled heIF3b-RRM with heIF3j peptide or labeled peptide with heIF3b-RRM; 20 mM deuterated TRIS pH 7.5, 100 mM NaCl, 25°C; 0.7 mM RRM, 0.7-1.0 mM peptide; 32 intermolecular NOEs
heIF3j-W52A = molecular target: T1, heIF3j-W52A (human, UniProt O75822 1-258, W52A); assay: ITC; VP-ITC; cell: 50 μM full-length heIF3j wt or mutant; syringe: 1 mM heIF3b-RRM; 20 mM Hepes pH 7.5, 200 mM NaCl, 25°C
T1 construct: human eIF3j, full length, W52A; source: E. coli BL21(DE3), purified (nickel-chelating column, TEV cleavage, second nickel column)
T1 sequence (O75822 whole entry W52A): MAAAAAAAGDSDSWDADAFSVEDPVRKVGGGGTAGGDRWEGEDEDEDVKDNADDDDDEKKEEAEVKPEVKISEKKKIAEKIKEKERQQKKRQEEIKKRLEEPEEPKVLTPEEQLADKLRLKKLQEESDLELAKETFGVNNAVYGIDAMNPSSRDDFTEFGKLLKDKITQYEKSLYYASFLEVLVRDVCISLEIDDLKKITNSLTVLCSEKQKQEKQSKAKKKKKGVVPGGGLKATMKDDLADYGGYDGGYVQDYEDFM

heIF3j-N51A-W52A = molecular target: T2, heIF3j-N51A-W52A (human, UniProt O75822 1-258, N51A | W52A); assay: as above
T2 construct: human eIF3j, full length, N51A and W52A; source: E. coli BL21(DE3), purified (nickel-chelating column, TEV cleavage, second nickel column)
T2 sequence (O75822 whole entry N51A/W52A): as the sequence (O75822 whole entry W52A) above, with N51A counted along it

[1] = molecular target: T3, heIF3j (full-length, untagged, wt) (human, UniProt O75822 1-258); assay: as above
T3 construct: human eIF3j, full length; also called human eIF3j; wt heIF3j; source: E. coli BL21(DE3), purified (nickel-chelating column, TEV cleavage, second nickel column)
T3 sequence (O75822 whole entry): as the sequence (O75822 whole entry W52A) above, with A52W counted along it

heIF3j-N51A = molecular target: T4, heIF3j-N51A (human, UniProt O75822 1-258, N51A); assay: as above
T4 construct: human eIF3j, full length, N51A; source: E. coli BL21(DE3), purified (nickel-chelating column, TEV cleavage, second nickel column)
T4 sequence (O75822 whole entry N51A): as the sequence (O75822 whole entry W52A) above, with N51A, A52W counted along it

heIF3j-D50K-D53K-D57K = molecular target: T5, heIF3j-D50K-D53K-D57K (human, UniProt O75822 1-258, D50K | D53K | D57K); assay: as above
T5 construct: human eIF3j, full length, D50K, D53K and D57K; source: E. coli BL21(DE3), purified (nickel-chelating column, TEV cleavage, second nickel column)
T5 sequence (O75822 whole entry D50K/D53K/D57K): as the sequence (O75822 whole entry W52A) above, with D50K, A52W, D53K, D57K counted along it

[2] = molecular target: T3, heIF3j (full-length, untagged, wt); assay: pull-down; His6-heIF3b-RRM (wt or mutant) incubated with untagged full-length heIF3j (30 μM each) 15 min at room temperature, His-select spin columns; 50 mM sodium phosphate pH 8, 100 mM NaCl; washes with 5 mM imidazole, elution with 250 mM imidazole; SDS-PAGE, InstantBlue

B1: heIF3j_(35-69) peptide (peptide, UniProt O75822 35-69, looked up)
peptide: GGDRWEGEDEDEDVKDNWDDDDDEKKEEAEVKPEV
notes: human eIF3j, residues 35-69, with the N-terminal acidic motif (NTA) around Trp52; 13C/15N-labeled in some NMR samples; also called heIF3j peptide; short heIF3j peptide; source: E. coli BL21(DE3), purified (nickel-chelating column, TEV cleavage, nickel column, HiTrap DEAE); not shown: His6, N-terminal, cleaved; lipoyl domain, N-terminal, cleaved
binding result (heIF3b-RRM_(170-274)): binds

Binder: B2
Kd (heIF3j-W52A): > 10000 µM | Kd (heIF3j-N51A-W52A): > 10000 µM | Kd [1]: 20.3 µM | Kd (heIF3j-N51A): 55 ± 0.3 µM | Kd (heIF3j-D50K-D53K-D57K): > 10000 µM

binding result [2]: binds
B3: His6-heIF3b-RRM-F261A (domain or fragment, human, UniProt P55884 170-274, looked up)
chain: GDVLKDRPQEADGIDSVIVVDNVPQVGPDRLEKLKNVIHKIFSKFGKITNDFYPEEDGKTKGYIFLEYASPAHAVDAVKNADGYKLDKQHTARVNLFTDFDKYMT
notes: human eIF3b, RNA recognition motif domain, F261A; source: E. coli BL21(DE3), purified (nickel-chelating column)

binding result [2]: binds
B4: His6-heIF3b-RRM-I210A (domain or fragment, human, UniProt P55884 170-274, looked up)
chain: GDVLKDRPQEADGIDSVIVVDNVPQVGPDRLEKLKNVIHKAFSKFGKITNDFYPEEDGKTKGYIFLEYASPAHAVDAVKNADGYKLDKQHTFRVNLFTDFDKYMT
notes: human eIF3b, RNA recognition motif domain, I210A; source: E. coli BL21(DE3), purified (nickel-chelating column)

binding result [2]: binds
B5: His6-heIF3b-RRM-Y253A (domain or fragment, human, UniProt P55884 170-274, looked up)
chain: GDVLKDRPQEADGIDSVIVVDNVPQVGPDRLEKLKNVIHKIFSKFGKITNDFYPEEDGKTKGYIFLEYASPAHAVDAVKNADGAKLDKQHTFRVNLFTDFDKYMT
notes: human eIF3b, RNA recognition motif domain, Y253A; source: E. coli BL21(DE3), purified (nickel-chelating column)
